Results: the supplement of paper PMC9170038

System: MS2 coat protein
Experiment: apparent KD of MS2 coat protein; designed switch direction (-1 OFF switch, 1 ON switch): -1; higher = weaker reporter binding
Outline: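 Three titration conditions were used: no input, 200 uM small-molecule ligand, and an oligonucleotide input. In each, SNAP-549-labelled MS2 coat protein was raised from 0.7 or 1.5 nM, doubling, to 3 µM over designed RNA switches transcribed on Illumina chips by stalled E. coli RNA polymerase. Curve fits of normalised cluster fluorescence gave values whose per-design median over clusters is the apparent KD.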

[1] = Eterna round: R95, input ligand: microRNA oligo, concentration not stated
[2] = Eterna round: R95, input ligand: FMN 200 uM
[3] = Eterna round: R95, input ligand: none
[4] = input ligand: microRNA oligo, concentration not stated

## UAAAGUAUAUAGGAUAUCUAGCUGGUAACAGCUAGAGAAGGAUGUACAUGAGGAUCACCCAUGUAAAUCGUGAA [Ex6/13-A2] (Eterna round: R97, puzzle: Exclusion 6)
Input ligand: FMN 200 uM
  apparent KD of MS2 coat protein: 20.5 nM
Input ligand: none
  apparent KD of MS2 coat protein: 16.9 nM

## UUUUGCACGCUGCGGUCCUACAUGAGGAUCACCCAUGUGGUCUGGUGGCGUGGGUCGCCGGACUUGGCUCGUCUUGU [salish99_S_TOV1_R5_036] (Eterna round: R97, puzzle: Sensor, turn-off variant 1)
Input ligand: FMN 200 uM
  apparent KD of MS2 coat protein: 19 nM
Input ligand: none
  apparent KD of MS2 coat protein: 19.1 nM

## CUUUUGUGAGGAUAUCAGGUGUGCUAGCGUACUGGUACAUCUGAGAAGGCACAUGAGGAUCACCCAUGUUUCUU [JL-ex4-3.19 Brourd mod] (puzzle: Exclusion 4)
[1]
  apparent KD of MS2 coat protein: 27.1 nM

## CAAAUCUGAGGAUAUCGAUAUUUGUACAUGAGGAUCACCCAUGUCCUAUUUAUAAAAUCCCGAGAAGGCAGUGUAU [JR_E5_Sub095] (puzzle: Exclusion 5)
[1]
  apparent KD of MS2 coat protein: 16.2 nM

## CAAUAACAAGCGAGAUCCUACAUGAGGAUCACCCAUGUGCUCGUCUUAUAAGGUACUGUGACGAUAGUCACGGUACC [Mat - Sensor, turn-off var - Eli Mod - D97] (Eterna round: R97, puzzle: Sensor, turn-off variant 1)
Input ligand: FMN 200 uM
  apparent KD of MS2 coat protein: 18.9 nM
Input ligand: none
  apparent KD of MS2 coat protein: 19.6 nM

## AUAGAGUUAGGAUAUGAGAGGCCGAACAUGAGGAUCACCCAUGUUCCGCGUGUUGCUCCCUUAGAAGGAACGAAUA [EX5 B.3] (Eterna round: R97, puzzle: Exclusion 5)
Input ligand: FMN 200 uM
  apparent KD of MS2 coat protein: 14.7 nM
Input ligand: none
  apparent KD of MS2 coat protein: 22 nM

## CUCUUGUUAGGAUAUCAAACCGGCGGCGGAGCCGCCGGAAGUGAGAAGGGACAUGAGGAUCACCCAUGUAAGAA [Maorgees] (puzzle: Exclusion 4)
[1]
  apparent KD of MS2 coat protein: 56.3 nM

## AAUAACAGAGGAUAUACUAAAAUAUGAAUAAAAUAAAUAAAACAUGAGGAUCACCCAUGUAGAAGGCUGAAUAA [JMF's Not so obvious solution 7] (puzzle: Exclusion 2)
[2]
  apparent KD of MS2 coat protein: 26 nM
[1]
  apparent KD of MS2 coat protein: 29.3 nM
[3]
  apparent KD of MS2 coat protein: 25 nM

## UAGCAUUGCCUUUGGUAGUGCUAUACAUGAGGAUCACCCAUGUAGGAUAUGGUCGGCUUUGCUGACCAGAAGGACAUGUGUAUU [MOD2 ENG3 1.04 by JL] (Eterna round: R96, puzzle: Exclusion NG 3)
Input ligand: FMN 200 uM
  apparent KD of MS2 coat protein: 159 nM
[4]
  apparent KD of MS2 coat protein: 91.5 nM
Input ligand: none
  apparent KD of MS2 coat protein: 93.1 nM

## UGAGUGCUGCGAGGAUAUACAUGAGGAUCACCCAUGUGGUGGUGUGAGGCUUUGCCUCACACCAUGUAGAAGGCGCAGUACUCU [JL ENG2 1.08] (Eterna round: R96, puzzle: Exclusion NG 2)
Input ligand: FMN 200 uM
  apparent KD of MS2 coat protein: 237 nM
[4]
  apparent KD of MS2 coat protein: 33.3 nM
Input ligand: none
  apparent KD of MS2 coat protein: 37.2 nM

## CCCGUGUAAGGAUAUGACAAUGGUAUCUUCGGAUACCAUUGUCAGAAGGUACAUGAGGAUCACCCAUGUAACAC [Ex4-3: 14] (puzzle: Exclusion 4)
[1]
  apparent KD of MS2 coat protein: 28 nM

## CUUUUGUGAGGAUAUUAGUAGUAAAUAAAUAAAUUUACUACUGAGAAGGCACAUGAGGAUCACCCAUGUUCCUC [salish99_ex4_r3_060] (Eterna round: R96, puzzle: Exclusion 4)
Input ligand: FMN 200 uM
  apparent KD of MS2 coat protein: 703 nM
[4]
  apparent KD of MS2 coat protein: 38.5 nM
Input ligand: none
  apparent KD of MS2 coat protein: 40.9 nM

## GGAGGACGAGCAGGAUAUUUUCACAUGAGGAUCACCCAUGUGUAAUCAGGGUAAUCCUCCGCCGAAAAGAAGGGUUCGGAAUAA [Mat - Exclusion NG 2 - Mod of JL - D82] (Eterna round: R96, puzzle: Exclusion NG 2)
Input ligand: FMN 200 uM
  apparent KD of MS2 coat protein: 60 nM
[4]
  apparent KD of MS2 coat protein: 52.4 nM
Input ligand: none
  apparent KD of MS2 coat protein: 70.5 nM

## UUAGAGUCAGGAUAUGCAGCUCCCUGUAGGGCCGAACAGCAGUAGAAGGGACAUGAGGAUCACCCAUGUGAUAG [Eternabot (L2) Solution 52] (Eterna round: R97, puzzle: Exclusion 4)
Input ligand: FMN 200 uM
  apparent KD of MS2 coat protein: 86.1 nM
Input ligand: none
  apparent KD of MS2 coat protein: 81.5 nM

## GGAUCAUAUGUCAGGAUAUGCAGGUCCUUGGAUCUGCAGAAGGGACAUGAGGAUCACCCAUGUCAUGUAGAUCC [Mat - Exclusion 4 - Eli Mod - D54] (Eterna round: R97, puzzle: Brourd's mod of Exclusion 4)
Input ligand: FMN 200 uM
  apparent KD of MS2 coat protein: 116 nM
Input ligand: none
  apparent KD of MS2 coat protein: 25.3 nM

## GAAGAGACAGGAUAUACAUGAGGAUCACCCAUGUGAGGAUGUUGGAGGCGGAGGAGGUGUAGAAGGGUCAAAGA [JR_Exclu3_Sub020] (puzzle: Exclusion 3)
[1]
  apparent KD of MS2 coat protein: 26.7 nM

## UCAUGGUAGCAGGAUAUGCUUGUUUUUUUUUUUGCAGAAGGGCUUACAUGAGGAUCACCCAUGUGUUAGGUCUA [JR_E6_Sub067] (puzzle: Exclusion 6)
[1]
  apparent KD of MS2 coat protein: 27.6 nM

## UCGCUCCGUGUAGGAUAUCGCCGUUCUAUUCGGCGAGAAGGACAUGAGGAUCACCCAUGUAUGUUAUUAUCACGCGUGGCGCAA [Design 58] (Eterna round: R96, puzzle: Exclusion NG 1)
[4]
  apparent KD of MS2 coat protein: 12.5 nM

## AGUACUAACACGCGAGUGUUAGUACAAUAAGCUUGUGAAACAUGAGGAUCACCCAUGUCCUCAUAAGCUCGUCUUAU [salish99_TOv2_r3_059] (puzzle: Sensor v3, turn-off variant 2)
[2]
  apparent KD of MS2 coat protein: 16.7 nM
[1]
  apparent KD of MS2 coat protein: 674 nM
[3]
  apparent KD of MS2 coat protein: 14.5 nM

## AGCCCGCAAGGAGGAUAUUAACAUGAGGAUCACCCAUGUAAUCACUAGAUAGCACGGGCGGUUCGUAAGAAGGUCUAGUGGAAU [Eternabot solution 24] (Eterna round: R96, puzzle: Exclusion NG 2)
Input ligand: FMN 200 uM
  apparent KD of MS2 coat protein: 35.4 nM
[4]
  apparent KD of MS2 coat protein: 22.3 nM
Input ligand: none
  apparent KD of MS2 coat protein: 33.1 nM

## UAUUAGCAAGCGAGAUCCCACAUGAGGAUCACCCAUGUAAAGCAUCCAGAAUUACUGGGUGCAAAAGCUCGUCUUUA [Winner reversed engineered 5] (Eterna round: R97, puzzle: Sensor, turn-off variant 1)
Input ligand: FMN 200 uM
  apparent KD of MS2 coat protein: 28.7 nM
Input ligand: none
  apparent KD of MS2 coat protein: 40 nM

## UAUAUAUAGUAAGGAUAUGUAUUAAUUUUACAAACAGAAGGUACUGACAUGAGGAUCACCCAUGUUUUAGUGUGGGCAUGUAGA [JMF's solution 89] (Eterna round: R96, puzzle: Exclusion NG 1)
[4]
  apparent KD of MS2 coat protein: 45.9 nM

## AGUGCUGGCGCGUCGGUGUUGGUGCAAUAAGCUUGUGAAACAUGAGGAUCACCCAUGUCCUCAUAAGCUCGUCUUAU [salish99_TOv2_r2_085] (Eterna round: R96, puzzle: Sensor v3, turn-off variant 2)
Input ligand: FMN 200 uM
  apparent KD of MS2 coat protein: 14.9 nM
[4]
  apparent KD of MS2 coat protein: 375 nM
Input ligand: none
  apparent KD of MS2 coat protein: 17.9 nM

## ACCUACCAGCUAGGAUAUGCAGUACAGUAAAAUGUAGAAGGAGCACGAUCCAGACAUGAGGAUCACCCAUGUGGGCGGUAGGCA [Errage] (Eterna round: R96, puzzle: Exclusion NG 1)
Input ligand: FMN 200 uM
  apparent KD of MS2 coat protein: 14.4 nM
[4]
  apparent KD of MS2 coat protein: 14 nM
Input ligand: none
  apparent KD of MS2 coat protein: 16.9 nM

## GAAGAGACAGGAUAUACAUGAGGAUCACCCAUGUGAGUAUGUUGGAGGCGGAGGAGAUGUAGAAGGGUCAAAGA [JR_Exclu3_Sub018] (puzzle: Exclusion 3)
[2]
  apparent KD of MS2 coat protein: 36.3 nM
[1]
  apparent KD of MS2 coat protein: 23.9 nM
[3]
  apparent KD of MS2 coat protein: 29.7 nM

## ACAUGAGGAUCACCCAUGUGCCCAUCUAGCACAUGUCCUCGCUAGGAUAUGUAGGCCUCGACGCCGCAGAAGGAGCUAAAAGAG [Raatlaan] (Eterna round: R96, puzzle: Exclusion NG 3)
Input ligand: FMN 200 uM
  apparent KD of MS2 coat protein: 129 nM
[4]
  apparent KD of MS2 coat protein: 44.6 nM
Input ligand: none
  apparent KD of MS2 coat protein: 64.5 nM

## AGUACUAACACGUUUGUGUUAGUACAAUAAGCUUGUGAAACAUGAGGAUCACCCAUGUCCUCAUAAGCUCGUCUUAU [salish99_TOv2_r3_069] (puzzle: Sensor v3, turn-off variant 2)
[2]
  apparent KD of MS2 coat protein: 17.4 nM
[1]
  apparent KD of MS2 coat protein: 567 nM
[3]
  apparent KD of MS2 coat protein: 16.3 nM

## CUCGUGUAAGGAUAUAUGAGUCACGGAAAUAAACCGUGAAGAUAGAAGGUACAUGAGGAUCACCCAUGUAAAAC [Mod of Anonveat 4 - Jieux - Exclusion 4] (Eterna round: R97, puzzle: Exclusion 4)
Input ligand: FMN 200 uM
  apparent KD of MS2 coat protein: 124 nM
Input ligand: none
  apparent KD of MS2 coat protein: 99.4 nM

## AGUAACAGAGGAUAUACUAUUUUAUGUGUUUGUUAUUUUAAACAUGAGGAUCACCCAUGUAGAAGGCUGAAUAA [JMF 84] (puzzle: Exclusion 2)
[1]
  apparent KD of MS2 coat protein: 21 nM

## CCGGAACAUGAGGAUCACCCAUGUCAGGAUAUGAAUAAAUCGUCGAAAGACGAUAAUCUCAGAAGGGACACCGG [Eli 4.28] (Eterna round: R97, puzzle: Exclusion 1)
Input ligand: FMN 200 uM
  apparent KD of MS2 coat protein: 22.7 nM
Input ligand: none
  apparent KD of MS2 coat protein: 19.6 nM

## GCAGCUAACACAGAUAUGUGCACAUGAGGAUCACCCAUGUCACAGGAUAUGGACUGGAUUACAGUCCAGAAGGGUGAAUGCUGC [Zipper Style 6] (Eterna round: R96, puzzle: Exclusion NG 3)
Input ligand: FMN 200 uM
  apparent KD of MS2 coat protein: 10.2 nM
[4]
  apparent KD of MS2 coat protein: 7.97 nM
Input ligand: none
  apparent KD of MS2 coat protein: 14 nM

## UACCCGUGAGGAUAUAGAGUCCUACACAUGAGGAUCACCCAUGUCAGCCUUAUCGUGGAUCUAGAAGGCAUAAACG [Eternabot (L1) Solution 88] (Eterna round: R97, puzzle: Exclusion 5)
Input ligand: FMN 200 uM
  apparent KD of MS2 coat protein: 103 nM
Input ligand: none
  apparent KD of MS2 coat protein: 183 nM

## UGCCUAAGAGGAUAUACAUAGAAAUAGAUUCAUGUAAAACUACAUGAGGAUCACCCAUGUAGAAGGCUUGGGCU [Mat - Exclusion 2 - JL Mod - D54] (Eterna round: R97, puzzle: Exclusion 2)
Input ligand: FMN 200 uM
  apparent KD of MS2 coat protein: 155 nM
Input ligand: none
  apparent KD of MS2 coat protein: 27.6 nM

## UCGUUGUGAGGAUAUAUAUGCAGUAAUCCUUUAAAUUUAUAACUUGAGGAUCACCCAAGUAGAAGGCGCGACGU [JR_Ex2_Sub056] (Eterna round: R97, puzzle: Exclusion 2)
Input ligand: FMN 200 uM
  apparent KD of MS2 coat protein: 160 nM
Input ligand: none
  apparent KD of MS2 coat protein: 30.2 nM
